The test addresses 天然CHIKV-E2蛋白 (Chikungunya virus (Ross株)).

DAS-ELISA检测灵敏度 data for one molecule are collected here from patent CN115093478A.

B1: 2A2-E10(HRP) (antibody, V domains shown)
VH: EVQLVESGGGLVQPKGSLKLSCAASGFTHNTYNMNWVRQAPGKGLEWVARIRSGSNMYATYYADSVKDRFTISRDDSQSILYLQMNNLKTEDTVMYYCERPDYSGSSYFDYWGQGTTLTVSS
VL: DIQLTQPPSYLAASPGETITINCRASKSYSKYCLAWYQEKPGKTNKLLIYSGSTLQSGIPSRFSGSGSGTDFTLTISSLEPEDFAMYYCQQGNMYPYTFGGGTKLEIK
With B1, the DAS-ELISA检测灵敏度 is 1e+06 PFU/mL.
